Here are results for one molecule from patent US9333240B2, “Compounds for improving nutritional status, cognition and survival” (YISSUM RESEARCH DEVELOPMENT COMPANY OF THE HEBREW …, priority 2005, dated 2016).

Entries after “also recorded” stand apart in the source; their conditions may differ.

Assay [1] has as its system mice. Put plainly: Eight-arm maze in LPS administered mice. The assay is classed as in vivo. The conditions noted are these: 1 mg/kg leptin daily. The procedure:
The animals were placed in an eight-arm maze, which is a scaled-down version of that developed for rats (Randt et al, (1971) Science 172, 489-499; Ziv et al (1994) Neuroscience Lett, 170, 136-140). We used water deprivation achieved by limiting water consumption overnight and a reward of 50 μl of water presented at the end of each arm. The mice were tested until they made entries into all eight arms or until they completed 24 entries, whichever came first. […] Maze performance was calculated each day for five consecutive days. Results were presented as area under the curve (AUC) utilizing the formula: (day 2+day 3+day 4+day 5)−4*(day 1).
LPS administered mice were daily treated with 1 mg/kg leptin and then subjected to the eight arm maze.

Another assay has as its system AMPK. Put plainly: Hippocampal AMPK phosphorylation by immunoblotting. The format is in vivo. The conditions noted are these: 40% diet restricted mice, 1 mg/kg leptin for 72 h. The procedure: (§1) Total hippocampal Protein was extracted using TriFast reagent. Aliquots of the clarified lysates containing […] were denatured in Laemmli sample buffer (6% SDS 30%, glycerol, 0.02% bromophenol blue, 200 mM Tris-HCl (pH 6.8), and 250 mM-mercaptoethanol, at 95° C. for 5 min. The samples were resolved by SDS-PAGE (10% acrylamide), and blotted onto nitrocellulose membrane. Non-specific binding in a Western blot analysis was prevented by immersing the membranes in blocking buffer (5% nonfat dry milk in Tris-buffer saline-Tween 20 (TBS-T)), for 2 h at room temperature. The membranes were then exposed to the indicated antibodies diluted 1:1000 for 1 h at room temperature. AMPK, phospho-AMPK and PARP were obtained from Cell Signaling. Bax, bcl-2 and actin were from Santa Cruz Biotechnology Inc. (Santa Cruz, Calif.). The blots were rinsed in TBS-T and then incubated with horseradish peroxidase-conjugated goat anti-mouse antibodies 1:10,000 for 1 h at room temperature. Antibody-antigen complexes were visualized by detecting enhanced chemiluminescence with X-ray film.
Leptin is a key hormone in the regulation of energy balance and is known to modulate AMPK activity in other systems^15,16. The manner by which leptin may interact with AMPK in modulating brain function was further investigated. Leptin was analyzed functionality under different degrees of diet restriction. […]
(In general: A western blot detects proteins with antibodies after separation by electrophoresis.)

For assay [2], the system named is mice. Put plainly: Activity index in TAA model of hepatic encephalopathy. The note with it: TAA treated mice, 1 mg/kg Leptin daily for 5 days. The format is in vivo. The procedure: FIG. 10. […] Mice were treated with TAA, then 1 mg/kg Leptin was administrated daily for 5 days and activity index was evaluated.
Mice were treated with TAA to cause an experimental hepatic encephalopathy-brain damaged caused by liver dysfunction and common in people whose liver function deteriorates. The activity index of the animals was assessed. […] FIG. 11.

Assay [3] has as its system mice. Put plainly: Mortality in TAA model of hepatic encephalopathy. The assay is classed as in vivo. The conditions noted are these: mice ad libitum or DR to 40%, with or without leptin. The procedure:
Mice were maintained on Ad Librium or DR to 40% conditions. TAA was administered with or without leptin. Treated mortalilty rate was recorded everyday.

In the next assay the test system is AKT. Put plainly: AKT phosphorylation in glucose-deprived cardiomyocytes. The format is cell-based. The conditions noted are these: glucose deprivation for 1, 3, 6 h. As to the method: Cultured cardiomyocytes exposed to glucose deprivation for 1, 3, 6 h were treated with Leptin. Stat-3 phosphorylation (A) and AKT phosphorylation (measure for cell survival and cardioroprotection) were measured by protein analysis.

For another assay, the system named is Bcl-2, Bax, PARP. Kind of assay: Hippocampal apoptosis proteins by RT-PCR and immunoblotting. The format is in vivo, mice. The conditions noted are these: leptin 1 mg/kg, DR to 40%, immunoblotting. The procedure: as §1, with “Total hippocampal RNA was extracted using […] reagent according to the manufacturer's instructions and reverse transcribed. Primers specific for OBRlong were […] NO: 1) and […] NO: 6), for […] NO: 2), and […] NO: 7), for BAX […] NO: 3) and […] NO: 8) for Bcl-2 […] NO: 4) and […] NO: 9) and for actin […] NO: 5) and […] NO: 10). […] Total” for “Total”, “TriFast” left out

B1: leptin: Murine leptin provided by A. Gertler; adipokine hormone, full leptin is a 146 amino acid sequence (protein, UniProt P41160 22-167, looked up)
Leptin: VPIQKVQDDTKTLIKTIVTRINDISHTQSVSAKQRVTGLDFIPGLHPILSLSKMDQTLAVYQQVLTSLPSQNVLQIANDLENLRDLLHLLAFSKSCSLPQTSGLQKPESLDGVLEASLYSTEVVALSRLQGSLQDILQQLDVSPEC
For the molecule B1, the “cognitive function in the eight arm maze” value in the assay on mice [1] is “reverse cognitive function in diseased animals to the level of health controls; also recorded: improved impaired cognitive function”. For the same molecule, the “hippocampal AMPK phosphorylation” value with AMPK is “significantly reduced”. Moreover, in the assay on mice [2], the activity index entry is given as “reverse activity in diseased animals to the level of health controls; also recorded: reversed activity to control level”. For the same molecule, the mortality entry in the assay with mice [3] was “decreases mortality”. Moreover, the mortality result in the assay with mice [3] (listed as Leptin) was “decreased mortality”. Besides, the “cell survival as measured by AKT phosphorylation” value in the assay with AKT is “improved the cell survival”. In addition, in the assay with Bcl-2, Bax, PARP, the Bax levels result is reported as “reducing”, the PARP cleavage result is “reduction in the cleaved subunit” and the bcl-2 level result is “up-regulation”.
